B1: EGFR-H (peptide)
peptide: ILDEAYVMA
B2: reference peptide HIV pol 589-597, P04585 1021-1029 (peptide)
peptide: IVGAETFYV
modifications: not checked

What was measured:
[1] = biological target: HLA-A*0201 molecule on human T2 cells (human); assay: T2 cells expressing HLA-A*0201, anti-HLA-A2-PE, FACS; settings: remark: other sources report otherwise
[2] = biological target: HLA-A*0201 molecule on human T2 cells (human); assay: T2 cells expressing HLA-A*0201, anti-HLA-A2-PE, FACS (Example 9)

Row | Binder | Concentration of peptide that induces 20% of HLA-A2 expression [1] [µM] | In vitro binding affinity (relative to reference peptide HIV pol 589-597) [1] | mean relative fluorescence intensity at 1.5625 µM peptide (% of HIV peptide) [1] | mean relative fluorescence intensity at 3.125 µM peptide (% of HIV peptide) [1] | mean relative fluorescence intensity at 6.25 µM peptide (% of HIV peptide) [1] | mean relative fluorescence intensity at 25 µM peptide (% of HIV peptide) [1] | mean relative fluorescence intensity at 50 µM peptide (% of HIV peptide) [1] | mean relative fluorescence intensity at 100 µM peptide (% of HIV peptide) [1] | In vitro binding affinity (relative to reference peptide HIV pol 589-597) [2]
1 | B1 | 2.8 | 0.2 | 12 | 28.6 | 33.7 | 91.5 | 107 | 87.4 | 
2 | B2 |  |  |  |  |  |  |  |  | 1

Reference: patent US20210113678A1
